Results: patent US20070036793A1, “Methods for use of an lkb1/strad7mo25 complex” (priority 2003, published 2007)

Biological target: T1, LKB1 (Mus musculus, UniProt Q9WTK7)
T1 construct: Constructs expressing the full length wild type and kinase dead mouse LKB1 have been described previously; made in house; host or cells: 293 cells, transiently transfected
T1 sequence (Q9WTK7 1-433 limits assumed): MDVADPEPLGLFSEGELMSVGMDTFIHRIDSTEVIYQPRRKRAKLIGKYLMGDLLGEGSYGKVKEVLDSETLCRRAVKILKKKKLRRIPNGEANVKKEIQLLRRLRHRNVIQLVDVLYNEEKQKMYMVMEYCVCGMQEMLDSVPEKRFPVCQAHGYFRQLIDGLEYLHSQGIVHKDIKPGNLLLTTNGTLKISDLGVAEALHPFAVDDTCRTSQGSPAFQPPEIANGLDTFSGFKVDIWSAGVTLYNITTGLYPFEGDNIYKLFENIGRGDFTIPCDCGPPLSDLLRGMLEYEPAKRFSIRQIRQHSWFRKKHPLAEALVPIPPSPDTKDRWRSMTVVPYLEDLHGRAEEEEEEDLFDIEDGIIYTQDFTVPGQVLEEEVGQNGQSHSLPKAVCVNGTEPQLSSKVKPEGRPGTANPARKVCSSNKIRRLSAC
T1 sequence (Q7RTN6 1-431 partner): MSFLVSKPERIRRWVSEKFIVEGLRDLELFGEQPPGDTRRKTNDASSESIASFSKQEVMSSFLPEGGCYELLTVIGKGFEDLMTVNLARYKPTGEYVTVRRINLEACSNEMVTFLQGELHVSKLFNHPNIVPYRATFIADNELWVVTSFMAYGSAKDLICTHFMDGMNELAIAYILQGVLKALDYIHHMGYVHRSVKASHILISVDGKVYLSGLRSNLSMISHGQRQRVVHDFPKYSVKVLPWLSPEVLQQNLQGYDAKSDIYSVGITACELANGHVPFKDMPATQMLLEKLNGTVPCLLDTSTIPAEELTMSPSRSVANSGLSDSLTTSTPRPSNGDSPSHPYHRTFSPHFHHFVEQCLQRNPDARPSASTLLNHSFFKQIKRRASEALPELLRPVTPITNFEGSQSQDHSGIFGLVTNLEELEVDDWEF
T1 sequence (Q9Y376 1-341 partner): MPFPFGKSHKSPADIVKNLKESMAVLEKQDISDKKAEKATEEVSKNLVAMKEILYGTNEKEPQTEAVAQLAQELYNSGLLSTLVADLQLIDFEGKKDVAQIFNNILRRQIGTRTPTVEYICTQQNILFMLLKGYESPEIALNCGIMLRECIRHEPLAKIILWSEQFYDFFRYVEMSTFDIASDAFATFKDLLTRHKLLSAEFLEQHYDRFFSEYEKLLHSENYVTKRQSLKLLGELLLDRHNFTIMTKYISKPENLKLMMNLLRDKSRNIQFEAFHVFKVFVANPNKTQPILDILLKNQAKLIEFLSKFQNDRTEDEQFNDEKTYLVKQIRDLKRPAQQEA
Experiment: LKB1 autophosphorylation and phosphorylation of MBP after co-expression with STRAD and MO25 isoforms in 293 cells
Type: biochemical
Conditions: GST-LKB1 co-expressed with STRAD and MO25 isoforms in 293 cells
Protocol: FIG. 9. Activation of LKB1 by association with STRAD and MO25 Isoforms. 293 cells were transfected with constructs encoding GST-LKB1 in the presence or absence of constructs encoding the indicated isoforms of STRAD and MO25. 36 h post-transfection, GST-LKB1 was affinity purified and assayed for autophosphorylation and transphosphorylation of MBP as described in the materials and methods. The reactions were electrophoresed and the gel autoradiographed (top panel). Phosphorylation of MBP by LKB1 at Thr65 was also monitored by immunoblotting with a phosphospecific antibody (T65-P), which recognises MBP phosphorylated by LKB1 at this residue. Each reaction was also immunoblotted with the appropriate epitope tag antibodies to monitor levels of LKB1, STRAD and MO25 isoforms. Similar results were obtained in 3 separate experiments.
LKB1 autophosphorylation and phosphorylation of MBP. […] After incubation for 40 min at 30° C., the reactions were terminated by the addition of 8 μl of sample Buffer. 30 μl was electrophoresed on SDS-polyacrylamide gels, which were then dried and analysed by autoradiography to quantify LKB1 autophosphorylation, MBP and STRADα phosphorylation. 5 μl of each reaction was diluted in 45 μl of 1× SDS Sample Buffer. […]

B1: STRADα: STE20-related pseudokinase (STe20-Related ADaptor protein-α) that binds and activates LKB1 (protein, UniProt Q7RTN6 1-431, looked up)
STE20-related kinase adapter …: MSFLVSKPERIRRWVSEKFIVEGLRDLELFGEQPPGDTRRKTNDASSESIASFSKQEVMSSFLPEGGCYELLTVIGKGFEDLMTVNLARYKPTGEYVTVRRINLEACSNEMVTFLQGELHVSKLFNHPNIVPYRATFIADNELWVVTSFMAYGSAKDLICTHFMDGMNELAIAYILQGVLKALDYIHHMGYVHRSVKASHILISVDGKVYLSGLRSNLSMISHGQRQRVVHDFPKYSVKVLPWLSPEVLQQNLQGYDAKSDIYSVGITACELANGHVPFKDMPATQMLLEKLNGTVPCLLDTSTIPAEELTMSPSRSVANSGLSDSLTTSTPRPSNGDSPSHPYHRTFSPHFHHFVEQCLQRNPDARPSASTLLNHSFFKQIKRRASEALPELLRPVTPITNFEGSQSQDHSGIFGLVTNLEELEVDDWEF
increase in LKB1 activity relative to LKB1 expressed alone: 4 fold
